Here are results for one molecule from patent US20060078911, “Oxidative DNA damage protection” (published 2006).

The target of data set [1] is PC4 (full length wild type) (Homo sapiens, UniProt P53999 SEQ:1-127). The experiment in a line: EMSA; complete binding at 352 nM PC4 without XPG; second shifted band at 704 nM; 2.5 nM DNA, 110 mM KCl, 1 mM EDTA, poly(dI-dC), pH 7.5, room temp; with XPG (41 nM) present complete binding at 44 nM. To be noted: tags: expressed in E. coli BL21(DE3); chain copies: 2 (inferred); label: 5'-32P on 10T-strand; duplex with central 10-nt unpaired bubble. The method, then: (§1) 2.5 nM of the 10-nt bubble DNA substrate was incubated with 41 nM of purified XPG (lanes 2-7) or without XPG (lanes 9-13). Reaction mixtures were supplemented with 44 nM (lanes 3 and 9), 88 nM (lanes 4 and 10), 176 nM (lanes 5 and 11), 352 nM (lanes 6 and 12) and 704 nM (lanes 7 and 13) of human PC4 protein, respectively. Samples were loaded onto a 4.5% native gel and electrophoresis was conducted at 150 V for 2 hours at 4° C. The gel was dried and exposed on a phosphorimager screen. No protein was added in lanes 1 and 8.
(§2) The 10T-strand was 5′-end labeled with T4 polynucleotide kinase and [γ-³²P]ATP and annealed with the complementary 10C-strand by heating for 3 minutes at 90° C. and cooled to room temperature. […] The gels were visualized by phosphorimager and analyzed using ImageQuant™ software (Molecular Dynamics).
(§3) To determine if XPG affects PC4 interaction with DNA bubbles, we pre-incubated the 10 bp bubble DNA with XPG and then added PC4 at varying concentrations (FIG. 9A, lanes 3-7). XPG strongly stimulated PC4 binding, with complete binding achieved at the lowest PC4 protein concentration analyzed (44 nM, lane 3) as compared to 352 nM in the absence of XPG Correspondingly, the tetramer-bound complex appears at lower concentrations (352 nM, lane 6) in the presence of XPG In no case did we observe a trimeric complex of XPG, PC4, and DNA. […]

In the next data set the target is T1, XPG (Homo sapiens, UniProt P28715 P28715:1-1186).
T1 sequence: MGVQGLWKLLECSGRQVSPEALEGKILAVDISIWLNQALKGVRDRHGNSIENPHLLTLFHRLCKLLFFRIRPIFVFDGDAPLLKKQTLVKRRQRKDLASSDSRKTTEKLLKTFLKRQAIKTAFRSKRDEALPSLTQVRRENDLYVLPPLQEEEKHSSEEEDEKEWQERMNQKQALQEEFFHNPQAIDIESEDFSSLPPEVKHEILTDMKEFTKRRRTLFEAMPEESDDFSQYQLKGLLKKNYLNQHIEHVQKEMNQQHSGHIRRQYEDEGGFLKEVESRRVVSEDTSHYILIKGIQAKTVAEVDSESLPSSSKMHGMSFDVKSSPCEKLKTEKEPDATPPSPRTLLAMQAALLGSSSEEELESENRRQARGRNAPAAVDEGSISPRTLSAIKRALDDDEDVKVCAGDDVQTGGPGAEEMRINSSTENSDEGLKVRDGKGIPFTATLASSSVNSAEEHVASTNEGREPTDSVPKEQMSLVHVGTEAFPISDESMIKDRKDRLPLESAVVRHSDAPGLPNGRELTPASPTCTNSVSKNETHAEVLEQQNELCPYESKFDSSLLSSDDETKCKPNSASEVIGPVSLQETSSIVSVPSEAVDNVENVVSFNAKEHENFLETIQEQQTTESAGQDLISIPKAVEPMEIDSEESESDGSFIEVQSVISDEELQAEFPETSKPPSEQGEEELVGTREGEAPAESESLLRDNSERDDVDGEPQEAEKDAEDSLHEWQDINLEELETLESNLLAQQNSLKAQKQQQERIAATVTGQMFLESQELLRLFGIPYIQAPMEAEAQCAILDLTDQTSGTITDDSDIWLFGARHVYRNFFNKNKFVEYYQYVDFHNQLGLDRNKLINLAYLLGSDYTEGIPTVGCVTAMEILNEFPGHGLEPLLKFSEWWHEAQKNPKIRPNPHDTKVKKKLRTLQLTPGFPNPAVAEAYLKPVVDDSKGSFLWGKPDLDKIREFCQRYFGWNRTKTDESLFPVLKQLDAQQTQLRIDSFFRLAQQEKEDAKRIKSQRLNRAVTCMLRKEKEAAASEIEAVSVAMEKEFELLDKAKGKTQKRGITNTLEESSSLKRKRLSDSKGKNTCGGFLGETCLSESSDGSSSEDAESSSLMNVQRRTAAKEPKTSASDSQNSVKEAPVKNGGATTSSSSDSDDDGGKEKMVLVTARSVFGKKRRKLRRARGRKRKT
The experiment in a line: EMSA; 41 nM XPG gives slowly migrating complex; displaced by PC4; 110 mM KCl, 1 mM EDTA, pH 7.5, room temp. The following applies: tags: expressed in High5 insect cells (pFASTBAC); label: 5'-32P on 10T-strand; duplex with central 10-nt unpaired bubble. The method, then:
as §1, §2, §3

B1: 10-nt bubble DNA (10T/10C) (structured_DNA)
DNA 1: GGGCAGACAACGTGGCGCTGTTTTTTTTTTGTGTCCTAGCACAGCGTATG
DNA 2: CATACGCTGTGCTAGGACACCCCCCCCCCCCAGCGCCACGTTGTCTGCCC
With B1, the binding result (in data set [1]; in the data set with XPG) was “binds” each time.
